According to patent US20250353926A1 (ENLAZA THERAPEUTICS, published 2025):

Experiments:
[1] = biological target: T1, PSMA expressed on target cells (PC3pip cells, high density; 22Rv1 cells, low density) (UniProt Q04609 1-750, limits assumed); test: cell-based or functional assay
[2] = biological target: T1, PSMA expressed on target cells (PC3pip …); test: cell-based or functional assay; remark: listed apart in the source
[3] = biological target: T1, PSMA expressed on target cells (PC3pip …); test: cell-based or functional assay; remark: listed apart in the source
[4] = biological target: T1, PSMA expressed on target cells (PC3pip …); test: cell-based or functional assay; remark: listed apart in the source
[5] = biological target: T1, PSMA expressed on target cells (PC3pip …); test: cell-based or functional assay; remark: listed apart in the source
[6] = biological target: T2, Biotinylated his-tagged human PSMA (human, UniProt Q04609 44-750, limits assumed, biotinylated (site not stated)); test: BLI, biotinylated his-tagged human PSMA on streptavidin sensors, pH 7.4; covalent crosslinking
T2 construct: also called immobilized PSMA; not shown: his tag

[7] = biological target: T2, Biotinylated his-tagged human PSMA; test: BLI, biotinylated his-tagged human PSMA on streptavidin sensors, pH 7.4; covalent crosslinking; pH 7.4; apparent KD under covalent crosslinking
[8] = biological target: T1, PSMA expressed on target cells (PC3pip …); test: cell-based or functional assay; remark: listed apart in the source
[9] = biological target: T2, Biotinylated his-tagged human PSMA; test: BLI, biotinylated his-tagged human PSMA on streptavidin sensors, pH 7.4; non 1:1 binding (covalent crosslinking); pH 7.4; non 1:1 binding (crosslinking to PSMA)
[10] = biological target: T3, biotin-labeled CD16a (Acro P/N CDA-H82E8) (human, UniProt P08637 17-208, biotin-labeled (site not stated)); test: BLI, biotin-labeled CD16a on streptavidin biosensors, pH 7.4
T3 construct: also called recombinant human CD16a; immobilized CD16a

[11] = biological target: T1, PSMA expressed on target cells (PC3pip …); test: cell-based or functional assay; remark: listed apart in the source
[12] = biological target: T2, Biotinylated his-tagged human PSMA; test: BLI, biotinylated his-tagged human PSMA on streptavidin sensors, pH 5.7

T1 sequence (Q04609 whole entry): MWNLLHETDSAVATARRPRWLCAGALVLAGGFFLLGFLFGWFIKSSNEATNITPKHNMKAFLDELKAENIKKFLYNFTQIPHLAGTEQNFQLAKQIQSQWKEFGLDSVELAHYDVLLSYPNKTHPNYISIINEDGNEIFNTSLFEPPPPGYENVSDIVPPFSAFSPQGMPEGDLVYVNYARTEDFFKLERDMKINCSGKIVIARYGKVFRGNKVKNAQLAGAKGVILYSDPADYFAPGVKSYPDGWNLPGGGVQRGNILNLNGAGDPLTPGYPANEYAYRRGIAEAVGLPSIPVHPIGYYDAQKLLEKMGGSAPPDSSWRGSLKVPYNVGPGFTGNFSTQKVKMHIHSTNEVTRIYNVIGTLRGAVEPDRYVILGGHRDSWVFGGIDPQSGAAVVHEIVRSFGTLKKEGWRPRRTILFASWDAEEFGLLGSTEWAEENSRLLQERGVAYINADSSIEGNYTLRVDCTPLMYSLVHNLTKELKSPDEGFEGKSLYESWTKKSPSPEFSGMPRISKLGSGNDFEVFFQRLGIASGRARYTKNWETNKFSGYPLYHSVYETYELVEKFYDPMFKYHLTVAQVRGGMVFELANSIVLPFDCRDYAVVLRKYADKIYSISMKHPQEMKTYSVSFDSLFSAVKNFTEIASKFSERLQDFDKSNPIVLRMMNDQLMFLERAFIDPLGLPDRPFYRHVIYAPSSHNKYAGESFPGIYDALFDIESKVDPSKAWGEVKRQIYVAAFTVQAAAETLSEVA
T2 sequence (Q04609 44-750 limits assumed): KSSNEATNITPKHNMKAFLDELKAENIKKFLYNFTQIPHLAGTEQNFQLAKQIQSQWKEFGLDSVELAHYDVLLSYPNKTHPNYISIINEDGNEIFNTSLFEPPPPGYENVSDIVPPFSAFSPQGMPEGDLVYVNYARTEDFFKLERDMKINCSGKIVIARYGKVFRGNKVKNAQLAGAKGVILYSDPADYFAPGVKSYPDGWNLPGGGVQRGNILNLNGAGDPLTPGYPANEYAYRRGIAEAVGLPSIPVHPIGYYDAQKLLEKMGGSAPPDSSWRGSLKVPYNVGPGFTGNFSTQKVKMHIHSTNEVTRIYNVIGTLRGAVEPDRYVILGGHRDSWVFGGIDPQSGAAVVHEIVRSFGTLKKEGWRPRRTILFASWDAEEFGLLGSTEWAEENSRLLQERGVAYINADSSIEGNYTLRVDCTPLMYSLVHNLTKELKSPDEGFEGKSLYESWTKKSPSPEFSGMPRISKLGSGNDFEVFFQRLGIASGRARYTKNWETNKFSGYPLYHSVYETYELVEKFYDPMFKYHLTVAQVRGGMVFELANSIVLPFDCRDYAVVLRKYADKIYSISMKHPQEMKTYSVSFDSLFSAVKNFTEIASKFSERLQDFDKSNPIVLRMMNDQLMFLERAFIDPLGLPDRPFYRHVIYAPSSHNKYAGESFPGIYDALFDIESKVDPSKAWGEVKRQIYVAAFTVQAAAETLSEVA
T3 sequence (P08637 17-208 limits assumed): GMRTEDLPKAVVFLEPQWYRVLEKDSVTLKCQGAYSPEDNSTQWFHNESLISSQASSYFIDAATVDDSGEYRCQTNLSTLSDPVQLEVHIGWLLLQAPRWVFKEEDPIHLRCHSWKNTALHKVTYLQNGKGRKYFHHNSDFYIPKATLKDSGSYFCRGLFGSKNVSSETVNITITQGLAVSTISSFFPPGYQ

B1: C22 (C37-L3-C35) (bispecific antibody)
chain: EVQLVESGGGLVQPGESLTLSCVVAGSIFSFAMSWYRQAPGKERELVARIGSDDRVTYADSVKGRFTISRDNIKRTAGLQMNSLKPEDTAVYYCNAQTDLRDWTVREYWGQGTQVTVSSGGGGSGGGGSGGGGSGGGGSQVQLQESGGGSVEAGGSLRLSCARSGWPYSTYSMNWFRQAPGKEREAVAGISSTMSGIIFAESKAGQFTISQDNAKNTVYLQMNNLKPEDTAIYYCAARRXFSLSSSSDDFDYWGQGTQVTVSSAAAYPYDVPDYGSSPSTPPTPSPSTPPHHHHHH
modifications: FSY (fluorosulfonyltyrosine) at the position printed X in SEQ ID NO: 37 (position 101 of the anti-PSMA sdAb domain)
notes: anti-CD16a sdAb C37 - 4x(G4S) - anti-PSMA sdAb-FSY C35; entry holds HA tag, SP tag and His6; also called C22 (FSY); FSY-containing bispecific construct
fold potency against C25; NK cell-mediated killing of PC3pip cells, 5 hr incubation and washout [1]: 140 fold
fold potency against C25; NK cell-mediated killing of PC3pip cells, test article present throughout [1]: 106 fold
EC50; ADCC reporter assay, PC3pip 4 h washout, 24 h endpoint [2]: 0.667 nM
EC50 [nM]; primary human NK cell-mediated killing of PC3pip cells, no washout, 20 h incubation [3]: 0.066 nM
EC50; ADCC reporter assay, 22Rv1 24 h continual [4]: 0.54 nM
EC50 [nM]; NK cell-mediated killing of PC3pip cells, 5 h washout, 20 h incubation [5]: 0.188 nM
koff [6]: < 1e-07 s⁻¹
Kd [7]: < 1 nM
EC50; ADCC luciferase reporter assay (Jurkat CD16a V158 reporter cells), PC3pip 24 h continuous [8]: 0.219 nM
kon [9]: 12800 M⁻¹ s⁻¹
Kd [10]: 1.48 nM
koff [10]: 8.69e-05 s⁻¹
kon [10]: 58800 M⁻¹ s⁻¹
EC50; ADCC reporter assay, 22Rv1 4 h washout, 24 h endpoint [11]: 3.19 nM
Kd [12]: ≤ 1140 nM
koff [12]: 0.0465 s⁻¹
kon [12]: 40700 M⁻¹ s⁻¹
